Measured values published in patent US11053304 (CENTIVAX, dated 2021).
Numbering of substitutions follows the chain as printed.

B1: COVID19_P07_D08 (scFv, V domains shown)
VH: EVQLVESGGGLVQPGGSLRLSCAASGFTFRNYAMHWVRQAPGKGLEWVSAIGTGGDTYYADSVKGRFTISRDNSKNTLYLQMNSLRAEDTAVYYCVTNMDNSRDYFPHYFHDMDVWGQGTLVTVSS
VL: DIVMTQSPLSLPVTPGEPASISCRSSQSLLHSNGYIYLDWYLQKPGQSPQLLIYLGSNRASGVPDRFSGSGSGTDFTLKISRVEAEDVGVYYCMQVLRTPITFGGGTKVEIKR
B2: COVID19_P07_D04 (scFv, V domains shown)
VH: EVQLVESGGGLVQPGGSLRLSCAASGFRFSDHPMHWVRQAPGKGLEWVAVITGSGRNKFYADSVKGRFTISRDNSKNTLYLQMNSLRAEDTAVYYCVTNMDNSRDYFPHYFHDMDVWGQGTLVTVSS
VL: DIVMTQSPLSLPVTPGEPASISCRSSQSLLHRNGYNYLDWYLQKPGQSPQLLIYGASTRATGVPDRFSGSGSGTDFTLKISRVEAEDVGVYYCTQSLQTPLTFGGGTKVEIKR
B3: COVID19_P08_H09 (scFv, V domains shown)
VH: EVQLVESGGGLVQPGGSLRLSCAASGFTFSDYALHWVRQAPGKGLEWVSGVSWNGSRTHYADSVKGRFTISRDNSKNTLYLQMNSLRAEDTAVYYCVTNMDNSRDYFPHYFHDMDVWGQGTLVTVSS
VL: not shown
B4: COVID19_P07_A12 (scFv, V domains shown)
VH: B1 VH with R30S, T53A, D56G
VL: DIVMTQSPLSLPVTPGEPASISCRSSQSLLYSDGDTYLDWYLQKPGQSPQLLIYLGSNRASGVPDRFSGSGSGTDFTLKISRVEAEDVGVYYCMQALQTPLTFGGGTKVEIKR
B5: COVID19_P07_B08 (scFv, V domains shown)
VH: B2 VH with R28T, S30D, H32Y, P33A, A49S, T52S, K58T, F59Y
VL: not shown
B6: COVID19_P07_E03 (scFv, V domains shown)
VH: EVQLVESGGGLVQPGGSLRLSCAASGFIFSSFGMHWVRQAPGKGLEWVSAISDSGDATQYADSVKGRFTISRDNSKNTLYLQMNSLRAEDTAVYYCVTNMDNSRDYFPHYFHDMDVWGQGTLVTVSS
VL: not shown
B7: COVID19_P20_F04 (scFv, V domains shown)
VH: B6 VH with I28A, F32Y, G33A, M34L, D53G, D56G, A57D, Q59Y
VL: B4 VL with Y31H, S32R, D33N, D35Y, T36N, L38V, K79R, L97R
B8: COVID19_P08_F08 (scFv, V domains shown)
VH: B6 VH with I28T, S30T, F32Y, D53G, D56G, A57T, Q59Y
VL: not shown
B9: COVID19_P20_F08 (scFv, V domains shown)
VH: B6 VH with I28T, F32Y, G33A, A50V, D53A, D56G, A57N, Q59Y, M100L
VL: B4 VL with Q27R, Y31H, S32T, D33N, D35L, T36N, L38I, M94T, L101I, T102S
B10: COVID19_P08_A10 (scFv, V domains shown)
VH: B6 VH with S30N, S31D, F32Y, D53G, D56G, A57N, Q59Y
VL: not shown
B11: COVID19_P08_C03 (scFv, V domains shown)
VH: B2 VH with R28T, D31S, H32Y, P33A, T52S, G53S, M100L
VL: not shown
B12: COVID19_P07_H03 (scFv, V domains shown)
VH: B6 VH with I28T, F32Y, G33A, D53R, A57S, T58A, Q59Y
VL: not shown
B13: COVID19_P19_H03 (scFv, V domains shown)
VH: B2 VH with R28T, D31S, H32Y, P33G, T52S, G53Y, S54D, R56S, F59Y
VL: not shown
B14: COVID19_P07_D05 (scFv, V domains shown)
VH: EVQLVESGGGLVQPGGSLRLSCAASGFTFRSYAMHWVRQAPGKGLEWVAVISHDASNKYYADSVKGRFTISRDNSKNTLYLQMNSLRAEDTAVYYCVTNMDNSRDYFPHYFHDMDVWGQGTLVTVSS
VL: not shown
B15: COVID19_P08_D11 (scFv, V domains shown)
VH: B6 VH with I28K, S30N, S31T, F32Y, G33A, D53I, S54T, D56G, A57N, Q59Y
VL: not shown
B16: COVID19_P07_D10 (scFv, V domains shown)
VH: B3 VH with S30D, L34M, G50A, W53T, N54T, S56G, R57S, H59Y
VL: not shown
B17: COVID19_P07_F11 (scFv, V domains shown)
VH: B6 VH with I28T, F32Y, V37I, I51V, D53A, A57R, Q59H, M100L
VL: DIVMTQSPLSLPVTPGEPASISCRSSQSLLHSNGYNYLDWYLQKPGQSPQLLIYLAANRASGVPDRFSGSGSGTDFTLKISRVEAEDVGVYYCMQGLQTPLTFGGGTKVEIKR
B18: COVID19_P08_B05 (scFv, V domains shown)
VH: B6 VH with I28T, F32Y, D53G, D56G, A57T, Q59Y
VL: not shown
B19: COVID19_P08_F07 (scFv, V domains shown)
VH: B6 VH with S30T, S31N, F32Y, G33A, M34L, D53G, D56G, A57S, Q59H, M100L
VL: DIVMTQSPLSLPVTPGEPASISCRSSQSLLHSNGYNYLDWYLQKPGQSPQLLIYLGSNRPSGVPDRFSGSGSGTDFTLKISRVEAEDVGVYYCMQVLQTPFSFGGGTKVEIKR
B20: COVID19_P07_E10 (scFv, V domains shown)
VH: B14 VH with R30S, A33G, H53Y, A55G
VL: B4 VL with Y31H, D33N, D35Y, T36N, Y37D, L55G, R59G
B21: COVID19_P07_F05 (scFv, V domains shown)
VH: B3 VH with D31N, L34M, V51I, W53S, N54G, R57G
VL: not shown
B22: COVID19_P07_H05 (scFv, V domains shown)
VH: B2 VH with R28T, D31S, H32Y, P33G, V37I, A49S, S54D
VL: not shown
B23: COVID19_P08_C02 (scFv, V domains shown)
VH: B3 VH with D31S, L34M, W53A, N54S, S56G, R57G, T58P, H59Y
VL: not shown
B24: COVID19_P07_H06 (scFv, V domains shown)
VH: B6 VH with I28T, F32Y, V37I, I51V, D53A, A57R, Q59H, M100L
VL: not shown
B25: COVID19_P19_D02 (scFv, V domains shown)
VH: B6 VH with I28T, F32Y, S49A, D53G, D56G, A57S, Q59H
VL: not shown
B26: COVID19_P07_G08 (scFv, V domains shown)
VH: B6 VH with I28T, F32Y, G33A, D53G, D56G, A57S, Q59Y
VL: not shown
B27: COVID19_P08_B11 (scFv, V domains shown)
VH: B6 VH with I28T, F32Y, V37I, I51V, D53A, A57R, Q59H, M100L
VL: DIVMTQSPLSLPVTPGEPASISCRSSQSLLHSNGYNRLAWYLQKPGQSPQLLIYLGSYRASGVPDRFSGSGSGTDFTLKISRVEAEDVGVYYCMQALQTPSFGGGTKVEIKR
B28: COVID19_P20_B01 (scFv, V domains shown)
VH: B2 VH with R28T, D31S, H32Y, P33A, T52S, G53S
VL: not shown
B29: COVID19_P20_F05 (scFv, V domains shown)
VH: B3 VH with D31T, L34M
VL: not shown

The binders below were run against T1, SARS-CoV-2 Receptor Binding Domain (RBD) protein (SARS-CoV-2, UniProt P0DTC2 319-541) (assay: SPR, scFv captured via anti-V5, RBD as analyte).

Binder | Kd [nM] | koff [s⁻¹] | kon [M⁻¹ s⁻¹]
B1 | 1.7 | 5.7e-05 | 34100
B2 | 2.3 | 5.7e-05 | 24400
B3 | 1.1 | 5.7e-05 | 51000

Each binder was assayed against SARS-CoV-1 Receptor Binding Domain (RBD) protein (SARS-CoV-1, UniProt P59594 306-527) (assay: SPR, scFv captured via anti-V5, RBD as analyte).

Binder | binding result
B1 | no binding (tested: up to 300 nM)
B4 | no binding (tested: up to 300 nM)
B5 | no binding (tested: up to 300 nM)
B2 | no binding (tested: up to 300 nM)
B3 | no binding (tested: up to 300 nM)
B6 | no binding (tested: up to 300 nM)
B7 | no binding (tested: up to 300 nM)
B8 | no binding (tested: up to 300 nM)
B9 | no binding (tested: up to 300 nM)
B10 | no binding (tested: up to 300 nM)
B11 | no binding (tested: up to 300 nM)
B12 | no binding (tested: up to 300 nM)
B13 | no binding (tested: up to 300 nM)
B14 | no binding (tested: up to 300 nM)
B15 | no binding (tested: up to 300 nM)
B16 | no binding (tested: up to 300 nM)
B17 | no binding (tested: up to 300 nM)
B18 | no binding (tested: up to 300 nM)
B19 | no binding (tested: up to 300 nM)
B20 | no binding (tested: up to 300 nM)
B21 | no binding (tested: up to 300 nM)
B22 | no binding (tested: up to 300 nM)
B23 | no binding (tested: up to 300 nM)
B24 | no binding (tested: up to 300 nM)
B25 | no binding (tested: up to 300 nM)
B26 | no binding (tested: up to 300 nM)
B27 | no binding (tested: up to 300 nM)
B28 | no binding (tested: up to 300 nM)
B29 | no binding (tested: up to 300 nM)

The binders below were run against MERS Receptor Binding Domain (RBD) protein (MERS coronavirus, UniProt K9N5Q8 367-606) (assay: SPR, scFv captured via anti-V5, RBD as analyte).

Binder | binding result
B1 | no binding (tested: up to 300 nM)
B4 | no binding (tested: up to 300 nM)
B5 | no binding (tested: up to 300 nM)
B2 | no binding (tested: up to 300 nM)
B3 | no binding (tested: up to 300 nM)
B6 | no binding (tested: up to 300 nM)
B7 | no binding (tested: up to 300 nM)
B8 | no binding (tested: up to 300 nM)
B9 | no binding (tested: up to 300 nM)
B10 | no binding (tested: up to 300 nM)
B11 | no binding (tested: up to 300 nM)
B12 | no binding (tested: up to 300 nM)
B13 | no binding (tested: up to 300 nM)
B14 | no binding (tested: up to 300 nM)
B15 | no binding (tested: up to 300 nM)
B16 | no binding (tested: up to 300 nM)
B17 | no binding (tested: up to 300 nM)
B18 | no binding (tested: up to 300 nM)
B19 | no binding (tested: up to 300 nM)
B20 | no binding (tested: up to 300 nM)
B21 | no binding (tested: up to 300 nM)
B22 | no binding (tested: up to 300 nM)
B23 | no binding (tested: up to 300 nM)
B24 | no binding (tested: up to 300 nM)
B25 | no binding (tested: up to 300 nM)
B26 | no binding (tested: up to 300 nM)
B27 | no binding (tested: up to 300 nM)
B28 | no binding (tested: up to 300 nM)
B29 | no binding (tested: up to 300 nM)

Biological target: T1, SARS-CoV-2 Receptor Binding Domain …
Experiment: SPR, scFv captured via anti-V5, RBD as analyte
Remark: another data set of the same source

Binder | Kd [nM]
B9 | < 50
B11 | < 50
B17 | < 50
B19 | < 50
B27 | < 50
